Assay: soluble fraction after stress (log2 fold change); higher = more stays soluble; pooled small domains, quantitative proteomics
Conditions: stress: 50 degC
Method in brief: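 Pooled custom libraries of small protein domains were measured in a high-throughput format, with quantitative proteomics as the read-out. Each library was stressed at 50°C. Aggregation propensity is given as the base-two logarithm of the fold change in how much of each protein stays soluble after the stress. Higher values mean a larger share of the protein remains in solution.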

First: HMNLGDLYVIMEIAGQRDDVSARLMNREGQTFLVKTGTKLKSGDVVKEITPTYIKTDHDGEEAFLYF
Second: HMLMKILTDALEKMSPEELKELAEATGVKNTSSITPETMVGVFQAVFRVGGFKSYQLTLIIVNAVLKA
The “soluble fraction (log2)” value of the first is lower: -0.542 for the first, -0.126 for the second.

Compared with “HMQYSIQVNKLLKAMREDVWYTANEILDLLKLKSKETLRKNYLDPAINNKLIILELPDKPTSRNQRYKI”, “HMVQIVINKEVQTTSQTILRENAGTSSRNIGYVDPNVKLRATLDRNSFYFIPEKKGWIMKSRVKLIEDLS” is lower in “soluble fraction (log2)” value: -1.66 for the first, -3.79 for the second.

First: HMDGEINPYTGREYVTNSVRMHPRRIGYVQVYSRKDHKWTDMTEWAFLGEQERKKVLLGKAYEPPVYL
Second: HMGGKWKPIILYYININSVARYSELKRFIPSINERMLTRQLRELEEDNLIERKVYPIVPPKVEYRLTEYGK
The “soluble fraction (log2)” value of the first is lower: -1.55 for the first, 0.0177 for the second.

“HMHTNNALWAIADDMRARKDDGEFDTYREGYKWAANNIVKEGIHITAIKLEKAYHKAKSEGKV” and “HMATKVSSGATVRDVADLLGLSSAELIKKLMMMGEMATLTQTLTDESIKSIADEYDRKIEIVSAAE” are within 0.2 log units of each other in “soluble fraction (log2)” value: -0.0602 for the first, 0.0948 for the second.

“HMKPDWLSDGRLIPDEVMSHLRKIAVHAVEEMGYSPEDVIKILGLSRNTIYDWLKRFREHGYEGLDTKK” and “HMPPNVLSEREQEVLQLAADGMSNKEMGSELYIAPTTVRDHMQSIMRKLQVNSRTAAAVAGLKLGLLD” are within 0.2 log units of each other in “soluble fraction (log2)” value: -0.258 for the first, -0.1 for the second.

Compared with “HMPTLSKVGSQGEEVRQIQTKLKNWGYLNDRVDGIYGPKTRDAVIWFQKKNGLVADGIAGPATLKAMGIFT”, “HMRTITYSITPAHAGMSVERYLKQQHGYSTRTLVKLKHYPQGLQLNGQHARTVDLLQAGDTLAVTFLD” is lower in “soluble fraction (log2)” value: 0.0925 for the first, -0.552 for the second.

First: HMKESFAQLFSLLTPTEQKVAALISQGFSNKDIAAKMFISLSTVKTHTNHIFAKMGVANRNALVAKVNN
Second: HMGDSFLDHKKELQSMILSRLDLSREVPDEEIKDIIDELIIAQSKKLFLSLNDRGKLRQELFYSIRK
The “soluble fraction (log2)” value of the first is lower: -1.08 for the first, -0.566 for the second.

Compared with “HMWAQSVSLHGLLGRQALLIVDGKPPRAVAPGQTHLGVTVLSTDEDRAVVALAGGQRLTLRVGESPVSVG”, “HMPELTERELEVLLLTARGLPSSEAARLLFITRRTVAAHLTSIYGKLGARNKTEAVLAALKRGIIMLDQIG” is lower in “soluble fraction (log2)” value: -0.0812 for the first, -4 for the second.

Compared with “HMEDDIRSSIRTLDQFISKNQITLSKDVKNYILQLLSNDRMVTINELEKIKIYYDSNENIDLDTVKILLN”, “HMTMKVTADILNMRSEASTNSDIVTKLKKDDELKVIEETKDDDGVTWVKVDFNGQVGFVSKEFLG” is higher in “soluble fraction (log2)” value: -0.754 for the first, 0.284 for the second.

“HMNSNSLSFSKFMQEVEAGRVIEVQIKGNDIQGELSDGSKFKTYSPNYPNLVDKLSENKVSIVATPL” and “HMKQISNTDELESMAKNIIQENPDQVSKFKNGNEKLFGWFVGQMMKSTGGTANPKVVNEILKNLLN” are within 0.2 log units of each other in “soluble fraction (log2)” value: 0.038 for the first, 0.152 for the second.

“HMLSVKEQTYQIIKEKILNQEYPAGARININELAEELGISNSPIREALSLLEQQGLVISNRSSGATVT” and “HMEVSEGEIREKVESVFSSNPRQAYNYKQISKKLNINDKSERQIVWDVLRKLAGSGKIQEVEHGRFRARAE” are within 0.2 log units of each other in “soluble fraction (log2)” value: 0.00507 for the first, 0.122 for the second.

First: HMNSRAERKEAAKEAIRNLLREGMTFEELTGPWLEKRFAEEPFNRGARSWQMLISEIKEEPEFQHL
Second: HMHSFGLHVRNLRKKSNLTLSQLSNASGLSLSAISKIENNQISPSFINLIRLAEGLKMHIADLVTVK
The “soluble fraction (log2)” value of the first is higher: 0.00166 for the first, -2.13 for the second.

“HMDDSSLFGRHTGIGFIVDDIDSGYQTLLAKGVSFEMPPTEQPWGGILALMKDPDGNIFYLD” and “HMDANAYTYKVSEDTDTRTGEKIFLVKVAEKLSRKEYIVVNNYMKSLGSYYSKFKHAFLFKENPTEKL” are within 0.2 log units of each other in “soluble fraction (log2)” value: -0.0639 for the first, -0.23 for the second.

First: HMKIELTDQQKSLVVDEWNKGEANPPSLLQLIRLAYPDQPHLDGRSKEGKAVKAFLATRDINPLA
Second: HMSAAYVYVTGTRVNQRDGPSTFDRVMGVLVEGTRVQLLRDQGQWAQIRSDLGTGWLSSGFLSRNG
The “soluble fraction (log2)” value of the first is higher: 0.0239 for the first, -1.87 for the second.

Compared with “HMITETIGANIKTLRDKFRMSQQDLASKMNTARPVISNWENGKTEPSSSQLLKLAKIFDTSTDKILGNV”, “HMKTLELIAAIRKRIAGGYAGADGRLPNIGEIAKDFSVSPMTAQKAVRALVEAGVLTSTRRKGVFLKQPAS” is lower in “soluble fraction (log2)” value: 0.163 for the first, -1.01 for the second.

Compared with “HMQSITAGDKVRVKNYTVSGGKKRGKVYGGAGTFVVYYEKYDVISVTGDRVVIGIGKAVTAAVHIDDLEK”, “HMKNETFAITSEDAGKRLDVWLTNILGDYSRSYVERLVEQGNVTVGGKTVKAGYKLKAGDSVQVSIPGPK” is higher in “soluble fraction (log2)” value: -1.15 for the first, 0.138 for the second.

Going from “HMATPRLAIVPQSAAGRRLDAVLAELFPEYSRSRLSAWIKTGDVMVDGAAPRGRDPVRGGEEITLTAVQ” to “HMRDTLSKQLLTEEMVLQFIREMREHDPGIGGEKLHAMYLGRFGRDYEYMVGRDKMEMIIAENNLNVR”, the “soluble fraction (log2)” value falls from -0.033 to -0.736.

“HMGAEIRDKVRAALAGLNPRAAEIFVMRYFDGYGNREIARLLNTSWSTIAVTLHRTRAKLQKELK” and “HMSTANISIEQAKEIALNHANLTSNQVIFSRTELDYDNGIQKYEVEFYYNNREYSYEINANTGDILGYEQ” are within 0.2 log units of each other in “soluble fraction (log2)” value: -0.101 for the first, -0.148 for the second.

First: HMHVSIAENIRRIRTQHDMTQEEFGKVAAVSAMAVSQWENGRAVPRMGAVQRIADYFNISKGEVID
Second: HMSEQGVITAKFASIVGNQNIQLVMFPDSVYLKGQVSSEEEKKRAETVASSLIQDRKIVNLIEFE
The “soluble fraction (log2)” value of the first is lower: -0.543 for the first, -0.0169 for the second.

First: HMSKDKEKRTREHVLGILKKYDKVMTDKAFTVFKKMIKDESILEMELIKLINFIGERKEIRSKDVLAVVTE
Second: HMANFGSILRNLRISRDITQSELAAKLGVSRSTVGMYETGAREPDFEAMEAIADTFNVDMDYLVGRSQ
The “soluble fraction (log2)” value of the first is higher: 0.281 for the first, -0.28 for the second.

Compared with “HMGIPIEAYHESLHRHYIDLWELLDTGKETLIDAEGNEVDKIHLLNAIRFNVNGMLHELLKE”, “HMGDGAWQQGEGGRWWYKYNNGTYPKDRVVTIGGKKYGFDSEGWMLSDTTKAFGGTTYSFAADGVATAQA” is higher in “soluble fraction (log2)” value: -1.76 for the first, -0.0259 for the second.

First: HMTNSAGIERFLASGAIDGVGPAMARRIVEHFGTEALRIIESVPHRLREISGIGPKTAEKIASSYMRQ
Second: HMSFGKKLRSLRQEKKLSQVELSKKLNVTSQALSQYELGKRIPDAEMIIRIADFFDVSVDYLLDRT
The “soluble fraction (log2)” value of the first is lower: -0.689 for the first, 0.215 for the second.

First: HMEDHMVVFGKGGRITRLPDKATVLEYLDAANFFASRSSVVKVNGKLASLDQTLRDGDSIEIVD
Second: HMNALNDLESKIFEEVVKAPEIIMNMTIREFASTVHASPTTIVRMTHKLGFSGWNELKTYLQKQKHQIS
The “soluble fraction (log2)” value of the first is higher: -0.183 for the first, -1.02 for the second.

“HMQELNDQQRLAILNEWNNRATNPPSLLELVRVAFPDAEGADGRSWHGKKVKEFLSTRQIKARAS” and “HMRDSYEVEGRIASVSPAAGTFVVAGVTVDYTGARFVGGTVAQLAPGVKVEVEGRRLANGTLQAREIEFD” are within 0.2 log units of each other in “soluble fraction (log2)” value: 0.119 for the first, 0.00935 for the second.

Going from “HMRAVPTKLAPFVEVLKAMLEADGHRPKAQRRTAKALHLELISRGYAGGYTRLTDYIRDWRQQQG” to “HMNPFTHEEINLMSIYNAAGTREGLIAALTEMWGYLDAEETELRELADSALAKLRGITDAEYAALELE”, the “soluble fraction (log2)” value rises from -2.34 to -0.633.

Compared with “HMAQRAADEARTHEILGLLRQARAALDHGGTARAARLRASIAEKLPAAPALPAWFARQLEQVDSQLAELQD”, “HMESRRVTLLLPYDKAGIADTLRREAAVLSLEYGEDGVTVEAVVKPELWGLVREYVQNDNPK” is higher in “soluble fraction (log2)” value: -0.432 for the first, 0.166 for the second.

First: HMLFKGDTREENVILEFLSKNGTTSSDAIIKQTGLSASEFNQAITMLELKGLALNNGGEKWSL
Second: HMSSQVFLGQKNSIAKYDLNENKPIWTKEIKGTPLILSTWKDMLLIQIQTWVSYTHMLVKQENGQTVWE
The “soluble fraction (log2)” value of the first is lower: -0.0779 for the first, 0.318 for the second.

Going from “HMKRLQEQAYDYLKELILSGKMIENEIYSETKLASEIGISRTPIRDALQRLSQDGFIDIIPSKGFRIH” to “HMSDHYEVLGVDRNATDDQIKKAYRRLARELHPDVNDAPESQEKFKLVTHAYEVLSDPDERRKYDMG”, the “soluble fraction (log2)” value rises from -0.134 to 0.0925.

First: HMGTHSAEQVRAAIRAIVAAEDAANPLSDARITELLAMRGIAAARRTVMKYREQLGIPSSAKRRR
Second: HMTDFSDLSFKYNSEEKDVLNSINLKINGGEMTSLVGHSGAGKTTILNLIPRFYEKSKGDISIDGQSIY
The “soluble fraction (log2)” value of the first is lower: -0.343 for the first, -0.0832 for the second.

“HMAAVSTDEEFAALGIPAEWIPVLKSNGFQTVESLKKVAPGALFNQLGGLRKKNKLEIAMPSLDQVKAWLA” and “HMVDDELTARRRVNLRRIADELGGAAAVARKTQKSVQQISSMLNGTKSFGSKIARDIEPKLGLPLQSLDKE” are within 0.2 log units of each other in “soluble fraction (log2)” value: 0.115 for the first, 0.128 for the second.

Going from “HMKLTINIDAAHDGKTIKQLFAEKGYSLELIKKFKYDGAIEVNGERKTVRWVLREGDLLVLEAN” to “HMAQFNELLFELRQDRKMTQEDLAKVLFVTSGTISNYENGVHLPDIEKLISLADFFGVTTDYLLG”, the “soluble fraction (log2)” value rises from -1.25 to -0.104.

Compared with “HMGGKYKGVIIGHLIDKTLRYNELQKLISHATPKMLIQQLKELEADGIIQRKLYPVVPPKTEYSLTERG”, “HMKSSLAKNLETLMQERQISQTRLSKISGVSQSYIFKILNDQIKKPSLDTLEKLATALDSTVAQLNH” is higher in “soluble fraction (log2)” value: -0.754 for the first, -0.00953 for the second.

First: HMNKEKLLEMFESMSIIIVQSLEEKEQTEDRIETELFNEAKTPRYSTLTKQDIQSVIRNILITVGV
Second: HMHPDHRTATVPDAAAGRRFDAVLAELFPQFSRSKLTTWIKSGEVLLNGEVPRPRDAVVGGETVSLNVVL
The “soluble fraction (log2)” value of the first is lower: -1.84 for the first, -0.275 for the second.

Compared with “HMRRSKVMLESILDEIPQMGQARRAALLEQFGSVAALRKASLAEIAMTPGIGEKIAVIIFEYLQKSSH”, “HMGKPVTMELLIPYSQGSLVHRISEAGEVAKTEYQNDGTYMQVTFTPSAKDHALMQEVASYRI” is higher in “soluble fraction (log2)” value: -1.17 for the first, 0.184 for the second.

First: HMSVPNVVGRDQVEASSLLESAGFKVSVKQSYSDSVEQGKVISQSPSGSTTVSPGSTVTITVSQ
Second: HMSSSMDAIAEIIRSIPRGDHLTAPEVYELAKQRGLKLSLSTVYRTLNKLKVVGDVITVSGDRGLRYESV
The “soluble fraction (log2)” value of the first is higher: 0.122 for the first, -0.181 for the second.

“HMIPTTELAERLGTTKVANMIMLGALIKASGIISFDDMIKNLGELLGEGKAKLIKLNKEALEVGFN” and “HMTTPAAISKIKKLEEAKRLLATTTYSMKEIAVKLKYKSHTHFGMDFKNNTGMTPAEYRKAIKAKREKQMN” are within 0.2 log units of each other in “soluble fraction (log2)” value: -0.0172 for the first, -0.0571 for the second.

Going from “HMKWYDSDKGFGFLSQEEGEDVYVRSSALPAGVEGLKAGQRVEFGIASGRRGPQALSL” to “HMGAQPLIEPLSERELEVLALIAEGLTNAEIGRRLFIATGTVKRHVNTIYGKLDVHGRIEAIARARDLHLI”, the “soluble fraction (log2)” value falls from -0.0714 to -0.276.

In the case of “HMYEDIDSAYRILEINSTVSNQEIKNAYRRMAKKYHPDKVAHLGVEHQKGAEEKFKKVQEAYILIKKRRG”, the “soluble fraction (log2)” value is reported as -0.557.
